# Measured values taken from patent US20240011005A1 (HUIDAGENE THERAPEUTICS, published 2024).
# Numbering of substitutions follows the chain as printed.
# T1: OsCas12f1 (ME-B.3) (Oscillibacter sp.)
# T1 sequence: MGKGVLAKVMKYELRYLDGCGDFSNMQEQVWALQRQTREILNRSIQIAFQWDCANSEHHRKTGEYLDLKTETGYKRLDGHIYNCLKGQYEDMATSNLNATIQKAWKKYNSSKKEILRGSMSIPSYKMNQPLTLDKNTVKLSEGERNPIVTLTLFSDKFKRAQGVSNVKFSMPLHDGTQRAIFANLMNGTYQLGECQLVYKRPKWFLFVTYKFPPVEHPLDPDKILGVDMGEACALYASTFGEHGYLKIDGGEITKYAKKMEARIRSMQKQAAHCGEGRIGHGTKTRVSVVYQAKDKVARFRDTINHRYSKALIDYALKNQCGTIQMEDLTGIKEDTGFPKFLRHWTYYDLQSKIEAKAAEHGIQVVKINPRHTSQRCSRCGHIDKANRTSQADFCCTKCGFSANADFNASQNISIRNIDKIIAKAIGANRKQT
# T2: RhCas12f1 (ME-A.1) (Ruminiclostridium herbifermentans)
# T2 sequence: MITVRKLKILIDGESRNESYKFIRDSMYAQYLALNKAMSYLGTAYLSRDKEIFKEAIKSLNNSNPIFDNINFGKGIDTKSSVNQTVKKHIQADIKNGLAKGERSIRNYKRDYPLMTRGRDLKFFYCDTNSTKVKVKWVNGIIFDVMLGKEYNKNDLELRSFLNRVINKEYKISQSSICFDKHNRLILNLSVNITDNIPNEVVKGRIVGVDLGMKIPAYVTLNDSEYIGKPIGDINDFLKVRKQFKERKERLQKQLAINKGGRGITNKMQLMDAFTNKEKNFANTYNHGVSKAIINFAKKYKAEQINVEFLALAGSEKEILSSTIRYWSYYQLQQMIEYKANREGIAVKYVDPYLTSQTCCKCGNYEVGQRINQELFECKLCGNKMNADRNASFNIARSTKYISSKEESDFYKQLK
# T3: RhCas12f1-L270R (enRhCas12f1) (Ruminiclostridium herbifermentans)
# T3 sequence: T2 sequence with L270R
# T4: RhCas12f1-A56R A56R (Ruminiclostridium herbifermentans)
# T4 sequence: T2 sequence with A56R
# T5: RhCas12f1-Y125R Y125R (Ruminiclostridium herbifermentans)
# T5 sequence: T2 sequence with Y125R
# T6: RhCas12f1-S130R S130R (Ruminiclostridium herbifermentans)
# T6 sequence: T2 sequence with S130R
# T7: RhCas12f1-I264R I264R (Ruminiclostridium herbifermentans)
# T7 sequence: T2 sequence with I264R
# T8: RhCas12f1-A273R A273R (Ruminiclostridium herbifermentans)
# T8 sequence: T2 sequence with A273R
# T9: RhCas12f1-T131R T131R (Ruminiclostridium herbifermentans)
# T9 sequence: T2 sequence with T131R
# B1: RhCas12f1 (ME-A.1) (enzyme)
# chain: T2 sequence
# notes: Purified recombinant protein used in size-exclusion chromatography; Entered as the single polypeptide; also called WTRhCas12f1; Cas12f1 from Ruminiclostridium herbifermentans; not shown: C-terminal 6xHis tag
# B2: OsCas12f1 (ME-B.3) (enzyme)
# chain: T1 sequence
# notes: Purified recombinant protein used in size-exclusion chromatography; Entered as the single polypeptide; also called WTOsCas12f1; Cas12f1 from Oscillibacter sp; not shown: C-terminal 6xHis tag
# Experiments:
# [1] = tested on: T1, OsCas12f1 (ME-B.3) (Oscillibacter sp.); experiment: cell_activity
# [2] = tested on: T2, RhCas12f1 (ME-A.1) (Ruminiclostridium herbifermentans); experiment: cell_activity
# [3] = tested on: T3, RhCas12f1-L270R (enRhCas12f1) (Ruminiclostridium herbifermentans); experiment: cell_activity; details: PAM CCCA
# [4] = tested on: T4, RhCas12f1-A56R A56R (Ruminiclostridium herbifermentans); experiment: cell_activity; details: PAM CCCA
# [5] = tested on: T5, RhCas12f1-Y125R Y125R (Ruminiclostridium herbifermentans); experiment: cell_activity; details: PAM CCCA
# [6] = tested on: T6, RhCas12f1-S130R S130R (Ruminiclostridium herbifermentans); experiment: cell_activity; details: PAM CCCA
# [7] = tested on: T7, RhCas12f1-I264R I264R (Ruminiclostridium herbifermentans); experiment: cell_activity; details: PAM CCCA
# [8] = tested on: T8, RhCas12f1-A273R A273R (Ruminiclostridium herbifermentans); experiment: cell_activity; details: PAM CCCA
# [9] = tested on: T9, RhCas12f1-T131R T131R (Ruminiclostridium herbifermentans); experiment: cell_activity; details: PAM CCCA
# [10] = molecular target: the molecule itself; experiment: size-exclusion chromatography (Superdex 200 Increase 10/300) of Cas12f1 RNP assembled with sgRNA; self-association (homodimer)
molecule,measurement,setting,value
AGGGCCGACUUCCCGGCCCAAAAUCGAGACAGUAGCCGUAAAACUUUGAGUUUCAGAGUGGGCGACACACUCGAAAAGGUUAAGAUAUGCACAUAGUAAUCCGUGCAUGAGCCGCGAAAGCGGCUUGAAGGCCAUUACAGUAGGAGCAUACUUUUAUUUUUUU / TTTCCCATTACAGTAGGAGCATACGGG / CCCGTATGCTCCTACTGTAATGGGAAA,binding signal (fold vs WT scaffold),[1]; PAM TTTC,1.56
ACGGUUGAUUUAGCAACCGAAGUCUGAGGGCAUGUAGAAAAAAGUAUAGGUAUAUACCAACAUACUUGCAUUGCCACUCGGAAAGGGUUAACCUUGGUCAUUGUGUUACCGACCAAGCAUUCCAGAAAUGGAAUGUAAAUGGGUCUUCGAGAAGACCUUUUUAUUUUUUU / CCCACCATTACAGTAGGAGCATAC / GTATGCTCCTACTGTAATGGTGGG,activity,[2]; non-targeting spacer,0.62 % GFP+
ACGGUUGAUUUAGCAACCGAAGUCUGAGGGCAUGUAGAAAAAAGUAUAGGUAUAUACCAACAUACUUGCAUUGCCACUCGGAAAGGGUUAACCUUGGUCAUUGUGUUACCGACCAAGCAUUCCAGAAAUGGAAUGUAAAUCCAUUACAGUAGGAGCAUACUUUUAUUUUUUU / CCCACCATTACAGTAGGAGCATAC / GTATGCTCCTACTGTAATGGTGGG,activity,[3],73.8 % GFP+
same,activity,[4],73 % GFP+
same,activity,[5],73.3 % GFP+
same,activity,[6],76.1 % GFP+
same,activity,[7],75 % GFP+
same,activity,"[2]; PAM CCCA, HEK293T",61.5 % GFP+
same,activity,[8],75.3 % GFP+
same,activity,[9],77.2 % GFP+
AGGGACGACUUCCCGUCCCAAAAUCGAGACAGUAGCCGUAAAACUUUGAGUUUCAGAGUGGGCGACACACUCGAAAAGGUUAAGAUAUGCACAUAGUAAUCCGUGCAUGAGCCGCGAAAGCGGCUUGAAGGGGGUCUUCGAGAAGACCUUUUUAUUUUUUU / TTTCCCATTACAGTAGGAGCATACGGG / CCCGTATGCTCCTACTGTAATGGGAAA,activity,[1]; non-targeting spacer,0.55 % GFP+
B1,binding result,[10],binds
B2,binding result,[10],binds
